Key:
Assay in all cases: EMSA
Settings in all cases: EMSA: 5 nM pUC19, 30 min at room temperature, pH 7.0, 50 mM MOPS/50 mM NaCl (low) or 200 mM MOPS/200 mM NaCl (high); 1% agarose in TAE
[1] = tested on: EncA encapsulin shell (Myxococcus xanthus)
[2] = tested on: EncA encapsulin shell;EncC cargo protein (Myxococcus xanthus;Myxococcus xanthus)
[3] = tested on: EncA encapsulin shell (Myxococcus xanthus); remark: listed apart in the source
[4] = tested on: EncA encapsulin shell;EncC cargo protein (Myxococcus xanthus;Myxococcus xanthus); remark: listed apart in the source

pUC19 supercoiled plasmid
Kd [1]: 300 nM
Kd [2]: 400 nM
Kd [3]: 300 nM
Kd [4]: 300 nM

Source: PMC9321382
